In US8586031B2, “Method of reusing rinse water from disinfecting packages with peracid and catalase” (Ecolab USA Inc., priority 2008, dated 2013):

Test: Decomposition of hydrogen peroxide by catalase in about 20,000 ppm acetic acid and 500-800 ppm hydrogen peroxide at 60° C., thiosulfate titration
Type: biochemical
Procedure: Example 1 compared the ability to various catalase enzymes at 100 ppm concentration to decompose hydrogen peroxide. For this example, an aliquot of a stock solution of catalase was added to 1000 ml of a solution containing about 20,000 ppm acetic acid and 500-800 ppm of hydrogen peroxide at 60° C. The catalase addition was done at a rate that produced an enzyme concentration of 100 ppm in the 1000 ml solution The concentration of the hydrogen peroxide was measured at time zero and at 5, 10, and 15 minutes. The concentration of hydrogen peroxide was measured via titration of a 10 ml aliquot of solution including 1-2 ml of […], 1-2 ml concentrated sulfuric acid, 4-5 drops of an oxygen catalyst (saturated solution of Ammonium Molybdate) and a few drops of a starch solution. The titrant was 0.1 N Sodium thio sulfate. The solution was titrated to a colorless endpoint and the peroxide concentration was calculated via the following calculation:
Example 2 compared the ability to various catalase enzymes at 20 ppm concentration to decompose hydrogen peroxide. For this example, 20 ppm of catalase enzyme was diluted in 20,000 ppm acetic acid and 500-800 ppm of hydrogen peroxide at 60° C. The concentration of the hydrogen peroxide was measured at time zero and at 5, 10, and 15 minutes in the same manner as outlined in example 1.

B1: Bovine Catalase: crystaline bovine liver catalase, Sigma Aldrich (protein, UniProt P00432 2-527, looked up)
Catalase: ADNRDPASDQMKHWKEQRAAQKPDVLTTGGGNPVGDKLNSLTVGPRGPLLVQDVVFTDEMAHFDRERIPERVVHAKGAGAFGYFEVTHDITRYSKAKVFEHIGKRTPIAVRFSTVAGESGSADTVRDPRGFAVKFYTEDGNWDLVGNNTPIFFIRDALLFPSFIHSQKRNPQTHLKDPDMVWDFWSLRPESLHQVSFLFSDRGIPDGHRHMNGYGSHTFKLVNANGEAVYCKFHYKTDQGIKNLSVEDAARLAHEDPDYGLRDLFNAIATGNYPSWTLYIQVMTFSEAEIFPFNPFDLTKVWPHGDYPLIPVGKLVLNRNPVNYFAEVEQLAFDPSNMPPGIEPSPDKMLQGRLFAYPDTHRHRLGPNYLQIPVNCPYRARVANYQRDGPMCMMDNQGGAPNYYPNSFSAPEHQPSALEHRTHFSGDVQRFNSANDDNVTQVRTFYLKVLNEEQRKRLCENIAGHLKDAQLFIQKKAVKNFSDVHPEYGSRIQALLDKYNEEKPKNAVHTYVQHGSHLSAREKANL
- decrease of the concentration of hydrogen peroxide (20 ppm catalase): did not measurably decrease
- Hydrogen Peroxide Concentration (20 ppm catalase, 0 minutes): 600 ppm
- Hydrogen Peroxide Concentration (20 ppm catalase, 5 minutes): 600 ppm
- Hydrogen Peroxide Concentration (20 ppm catalase, 10 minutes): 600 ppm
- Hydrogen Peroxide Concentration (20 ppm catalase, 15 minutes): 600 ppm
- decreased the concentration of hydrogen peroxide by (100 ppm catalase, 0 to 15 minutes): 28.9 ppm
- Hydrogen Peroxide Concentration (100 ppm catalase, 0 minutes): 581.4 ppm
- Hydrogen Peroxide Concentration (100 ppm catalase, 5 minutes): 564.4 ppm
- Hydrogen Peroxide Concentration (100 ppm catalase, 10 minutes): 561 ppm
- Hydrogen Peroxide Concentration (100 ppm catalase, 15 minutes): 552.5 ppm
